Data from patent US20220288219A1 (MYTHIC THERAPEUTICS, published 2022).

T1: CD22 Protein (His Tag), Sino Biological Cat. No. 11958-H08H (UniProt P20273 20-687)
T1 construct: soluble analyte, 50 nM in BLI; also called Sino Biological antigen
T1 sequence (looked up): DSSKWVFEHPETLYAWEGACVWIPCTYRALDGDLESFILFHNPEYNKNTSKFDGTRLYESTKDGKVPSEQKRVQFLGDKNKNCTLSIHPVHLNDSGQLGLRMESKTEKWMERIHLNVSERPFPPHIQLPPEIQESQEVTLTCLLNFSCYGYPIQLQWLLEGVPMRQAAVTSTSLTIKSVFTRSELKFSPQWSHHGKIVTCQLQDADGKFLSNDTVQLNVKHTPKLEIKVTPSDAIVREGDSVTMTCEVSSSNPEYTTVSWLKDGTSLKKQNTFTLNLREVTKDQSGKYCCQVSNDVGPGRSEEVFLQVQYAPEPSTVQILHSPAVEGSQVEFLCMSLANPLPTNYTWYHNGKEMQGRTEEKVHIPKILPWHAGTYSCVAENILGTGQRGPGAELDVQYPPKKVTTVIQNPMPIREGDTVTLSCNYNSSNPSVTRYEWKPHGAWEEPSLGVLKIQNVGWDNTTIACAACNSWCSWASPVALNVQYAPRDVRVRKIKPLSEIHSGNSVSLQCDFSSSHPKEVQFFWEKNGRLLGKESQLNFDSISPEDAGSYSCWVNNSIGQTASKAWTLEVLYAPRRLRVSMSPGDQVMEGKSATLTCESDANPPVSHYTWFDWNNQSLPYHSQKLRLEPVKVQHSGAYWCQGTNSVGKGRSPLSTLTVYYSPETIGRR

B1: MYT1496 (antibody, V domains shown)
VH: QVQLVQSGAEVKKPGSSVKVSCKASHYTFTSYWLHWVRQAPGQGLEWIGYINPRNDYTEYNQNFKDKATITADESTNTAYMELSSLRSEDTAFYFCARRDITTFYWGQGTTVTVSS
VL: DIQLTQSPSSLSASVGDRVTMSCKSSQSVLYSANHKNYLAWYQQKPGKAPKLLIYWASTRESGVPSRFSGSGSGTDFTFTISSLQPEDIATYYCHQYLSSWTFGGGTKVQIK
notes: ADCT-602 VH G26H; tie by order
B2: MYT1508 (antibody, V domains shown)
VH: QVQLVQSGAEVKKPGSSVKVSCKASGYTFTSYWLHWVRQAPGQGLEWIGYIHPRNDYTEYNQNFKDKATITADESTNTAYMELSSLRSEDTAFYFCARRDITTFYWGQGTTVTVSS
VL: DIQLTQSPSSLSASVGDRVTMSCKSSQSVLYSANHKNYLAWYQQKPGKAPKLLIYWASTRESGVPSRFSGSGSGTDFTFTISSLQPEDIATYYCHQYLSSWTFGGGTKVQIK
notes: ADCT-602 VH N52H; tie by order
B3: MYT1497 (antibody, V domains shown)
VH: QVQLVQSGAEVKKPGSSVKVSCKASGHTFTSYWLHWVRQAPGQGLEWIGYINPRNDYTEYNQNFKDKATITADESTNTAYMELSSLRSEDTAFYFCARRDITTFYWGQGTTVTVSS
VL: DIQLTQSPSSLSASVGDRVTMSCKSSQSVLYSANHKNYLAWYQQKPGKAPKLLIYWASTRESGVPSRFSGSGSGTDFTFTISSLQPEDIATYYCHQYLSSWTFGGGTKVQIK
notes: ADCT-602 VH Y27H; tie by order
B4: MYT1521 (antibody, V domains shown)
VH: QVQLVQSGAEVKKPGSSVKVSCKASGYTFTSYWLHWVRQAPGQGLEWIGYINPRNDYTEYNQNFHDKATITADESTNTAYMELSSLRSEDTAFYFCARRDITTFYWGQGTTVTVSS
VL: DIQLTQSPSSLSASVGDRVTMSCKSSQSVLYSANHKNYLAWYQQKPGKAPKLLIYWASTRESGVPSRFSGSGSGTDFTFTISSLQPEDIATYYCHQYLSSWTFGGGTKVQIK
notes: ADCT-602 VH K65H; tie by order
B5: MYT1525 (antibody, V domains shown)
VH: QVQLVQSGAEVKKPGSSVKVSCKASGYTFTSYWLHWVRQAPGQGLEWIGYINPRNDYTEYNQNFKDKATITADESTNTAYMELSSLRSEDTAFYFCARHDITTFYWGQGTTVTVSS
VL: DIQLTQSPSSLSASVGDRVTMSCKSSQSVLYSANHKNYLAWYQQKPGKAPKLLIYWASTRESGVPSRFSGSGSGTDFTFTISSLQPEDIATYYCHQYLSSWTFGGGTKVQIK
notes: ADCT-602 VH R99H; tie by order
B6: MYT1507 (antibody, V domains shown)
VH: QVQLVQSGAEVKKPGSSVKVSCKASGYTFTSYWLHWVRQAPGQGLEWIGYHNPRNDYTEYNQNFKDKATITADESTNTAYMELSSLRSEDTAFYFCARRDITTFYWGQGTTVTVSS
VL: DIQLTQSPSSLSASVGDRVTMSCKSSQSVLYSANHKNYLAWYQQKPGKAPKLLIYWASTRESGVPSRFSGSGSGTDFTFTISSLQPEDIATYYCHQYLSSWTFGGGTKVQIK
notes: ADCT-602 VH I51H; tie by order
B7: MYT1529 (antibody, V domains shown)
VH: QVQLVQSGAEVKKPGSSVKVSCKASGYTFTSYWLHWVRQAPGQGLEWIGYINPRNDYTEYNQNFKDKATITADESTNTAYMELSSLRSEDTAFYFCARRDITHFYWGQGTTVTVSS
VL: DIQLTQSPSSLSASVGDRVTMSCKSSQSVLYSANHKNYLAWYQQKPGKAPKLLIYWASTRESGVPSRFSGSGSGTDFTFTISSLQPEDIATYYCHQYLSSWTFGGGTKVQIK
notes: ADCT-602 VH T103H; tie by order
B8: MYT1526 (antibody, V domains shown)
VH: QVQLVQSGAEVKKPGSSVKVSCKASGYTFTSYWLHWVRQAPGQGLEWIGYINPRNDYTEYNQNFKDKATITADESTNTAYMELSSLRSEDTAFYFCARRHITTFYWGQGTTVTVSS
VL: DIQLTQSPSSLSASVGDRVTMSCKSSQSVLYSANHKNYLAWYQQKPGKAPKLLIYWASTRESGVPSRFSGSGSGTDFTFTISSLQPEDIATYYCHQYLSSWTFGGGTKVQIK
notes: ADCT-602 VH D100H; tie by order
B9: MYT1499 (antibody, V domains shown)
VH: QVQLVQSGAEVKKPGSSVKVSCKASGYTHTSYWLHWVRQAPGQGLEWIGYINPRNDYTEYNQNFKDKATITADESTNTAYMELSSLRSEDTAFYFCARRDITTFYWGQGTTVTVSS
VL: DIQLTQSPSSLSASVGDRVTMSCKSSQSVLYSANHKNYLAWYQQKPGKAPKLLIYWASTRESGVPSRFSGSGSGTDFTFTISSLQPEDIATYYCHQYLSSWTFGGGTKVQIK
notes: ADCT-602 VH F29H; tie by order
B10: MYT1504 (antibody, V domains shown)
VH: QVQLVQSGAEVKKPGSSVKVSCKASGYTFTSYWHHWVRQAPGQGLEWIGYINPRNDYTEYNQNFKDKATITADESTNTAYMELSSLRSEDTAFYFCARRDITTFYWGQGTTVTVSS
VL: DIQLTQSPSSLSASVGDRVTMSCKSSQSVLYSANHKNYLAWYQQKPGKAPKLLIYWASTRESGVPSRFSGSGSGTDFTFTISSLQPEDIATYYCHQYLSSWTFGGGTKVQIK
notes: ADCT-602 VH L34H; tie by order
B11: MYT1513 (antibody, V domains shown)
VH: QVQLVQSGAEVKKPGSSVKVSCKASGYTFTSYWLHWVRQAPGQGLEWIGYINPRNDHTEYNQNFKDKATITADESTNTAYMELSSLRSEDTAFYFCARRDITTFYWGQGTTVTVSS
VL: DIQLTQSPSSLSASVGDRVTMSCKSSQSVLYSANHKNYLAWYQQKPGKAPKLLIYWASTRESGVPSRFSGSGSGTDFTFTISSLQPEDIATYYCHQYLSSWTFGGGTKVQIK
notes: ADCT-602 VH Y57H; tie by order
B12: MYT1509 (antibody, V domains shown)
VH: QVQLVQSGAEVKKPGSSVKVSCKASGYTFTSYWLHWVRQAPGQGLEWIGYINHRNDYTEYNQNFKDKATITADESTNTAYMELSSLRSEDTAFYFCARRDITTFYWGQGTTVTVSS
VL: DIQLTQSPSSLSASVGDRVTMSCKSSQSVLYSANHKNYLAWYQQKPGKAPKLLIYWASTRESGVPSRFSGSGSGTDFTFTISSLQPEDIATYYCHQYLSSWTFGGGTKVQIK
notes: ADCT-602 VH P53H; tie by order
B13: MYT1505 (antibody, V domains shown)
VH: QVQLVQSGAEVKKPGSSVKVSCKASGYTFTSYWLAWVRQAPGQGLEWIGYINPRNDYTEYNQNFKDKATITADESTNTAYMELSSLRSEDTAFYFCARRDITTFYWGQGTTVTVSS
VL: DIQLTQSPSSLSASVGDRVTMSCKSSQSVLYSANHKNYLAWYQQKPGKAPKLLIYWASTRESGVPSRFSGSGSGTDFTFTISSLQPEDIATYYCHQYLSSWTFGGGTKVQIK
notes: ADCT-602 VH H35A; tie by order
B14: MYT1498 (antibody, V domains shown)
VH: QVQLVQSGAEVKKPGSSVKVSCKASGYHFTSYWLHWVRQAPGQGLEWIGYINPRNDYTEYNQNFKDKATITADESTNTAYMELSSLRSEDTAFYFCARRDITTFYWGQGTTVTVSS
VL: DIQLTQSPSSLSASVGDRVTMSCKSSQSVLYSANHKNYLAWYQQKPGKAPKLLIYWASTRESGVPSRFSGSGSGTDFTFTISSLQPEDIATYYCHQYLSSWTFGGGTKVQIK
notes: ADCT-602 VH T28H; tie by order
B15: MYT1527 (antibody, V domains shown)
VH: QVQLVQSGAEVKKPGSSVKVSCKASGYTFTSYWLHWVRQAPGQGLEWIGYINPRNDYTEYNQNFKDKATITADESTNTAYMELSSLRSEDTAFYFCARRDHTTFYWGQGTTVTVSS
VL: DIQLTQSPSSLSASVGDRVTMSCKSSQSVLYSANHKNYLAWYQQKPGKAPKLLIYWASTRESGVPSRFSGSGSGTDFTFTISSLQPEDIATYYCHQYLSSWTFGGGTKVQIK
notes: ADCT-602 VH I101H; tie by order
B16: MYT1523 (antibody, V domains shown)
VH: QVQLVQSGAEVKKPGSSVKVSCKASGYTFTSYWLHWVRQAPGQGLEWIGYINPRNDYTEYNQNFKDKATITADESTNTAYMELSSLRSEDTAFYFCHRRDITTFYWGQGTTVTVSS
VL: DIQLTQSPSSLSASVGDRVTMSCKSSQSVLYSANHKNYLAWYQQKPGKAPKLLIYWASTRESGVPSRFSGSGSGTDFTFTISSLQPEDIATYYCHQYLSSWTFGGGTKVQIK
notes: ADCT-602 VH A97H; tie by order
B17: MYT2275 (antibody, V domains shown)
VH: EVQLVESGGGLVKPGGSLRLSCAASGFAFSHYDMSWVRQAPGKGLEWVAYISSGGGTTYYPDTVKGRFTISRDNAKNSLYLQMSSLRAEDTAMYYCARHSGYGSSYGVLFAYWGQGTLVTVSS
VL: DIQMTQSPSSLSASVGDRVTITCRASQDISNYLNWYQQKPGKAVKLLIYYTSILHSGVPSRFSGSGSGTDYTLTISSLQQEDFATYFCQQGNTLPWTFGGGTKVEIK
notes: TRPH-222 VH I31H; tie by order
B18: MYT2303 (antibody, V domains shown)
VH: EVQLVESGGGLVKPGGSLRLSCAASGFAFSIYDMSWVRQAPGKGLEWVAYISSGGGTTYYPDTVKGRFTISRDNAKNSLYLQMSSLRAEDTAMYYCARHSGYHSSYGVLFAYWGQGTLVTVSS
VL: DIQMTQSPSSLSASVGDRVTITCRASQDISNYLNWYQQKPGKAVKLLIYYTSILHSGVPSRFSGSGSGTDYTLTISSLQQEDFATYFCQQGNTLPWTFGGGTKVEIK
notes: TRPH-222 VH G103H; tie by order
B19: MYT2301 (antibody, V domains shown)
VH: EVQLVESGGGLVKPGGSLRLSCAASGFAFSIYDMSWVRQAPGKGLEWVAYISSGGGTTYYPDTVKGRFTISRDNAKNSLYLQMSSLRAEDTAMYYCARHSHYGSSYGVLFAYWGQGTLVTVSS
VL: DIQMTQSPSSLSASVGDRVTITCRASQDISNYLNWYQQKPGKAVKLLIYYTSILHSGVPSRFSGSGSGTDYTLTISSLQQEDFATYFCQQGNTLPWTFGGGTKVEIK
notes: TRPH-222 VH G101H; tie by order

Molecular target: T1, CD22 Protein (His Tag), Sino Biological …
Assay: BLI, IgG on anti-human Fc sensor

Does B1 bind?
Result: no binding (tested: 50 nM)

Does B2 bind?
Result: no binding (tested: 50 nM)

Does B3 bind?
Result: no binding (tested: 50 nM)

Does B4 bind?
Result: no binding (tested: 50 nM)

Does B5 bind?
Result: no binding (tested: 50 nM)

Does B6 bind?
Result: no binding (tested: 50 nM)

Does B7 bind?
Result: no binding (tested: 50 nM)

Does B8 bind?
Result: no binding (tested: 50 nM)

Does B9 bind?
Result: no binding (tested: 50 nM)

Does B10 bind?
Result: no binding (tested: 50 nM)

Does B11 bind?
Result: no binding (tested: 50 nM)

Does B12 bind?
Result: no binding (tested: 50 nM)

Does B13 bind?
Result: no binding (tested: 50 nM)

Does B14 bind?
Result: no binding (tested: 50 nM)

Does B15 bind?
Result: no binding (tested: 50 nM)

Does B16 bind?
Result: no binding (tested: 50 nM)

Does B17 bind?
Result: no binding (tested: 50 nM)

Does B18 bind?
Result: no binding (tested: 50 nM)

Does B19 bind?
Result: no binding (tested: 50 nM)
